The values below come from patent US20160145328A1.

This experiment has as its target protein A (UniProt P38507). Description: Heat/Cool phage ELISA: phage-displayed VH, 80 C 10 min then 4 C 10 min, captured on coated protein A; signal as % of untreated sample. (In general: An ELISA detects its analyte on a solid surface through an enzyme-linked reagent.)

Take DP47 VH SY_31/32-DE: the Retained binding to protein A (%) is 50%.
